± gives the uncertainty stated by the source.
B1: SAM and SH3 domain-containing protein 1, residues 630 to 700; numbered along this chain, O94885 (parent)
chain: GRPPQPKSVEDLLDRINLKEHMPTFLFNGYEDLDTFKLLEEEDLDELNIRDPEHRAVLLTAVELLQEYDSN

Variants of: B1
Assay: abundance fitness (aPCA) (normalised: wild type 0, dead -1); higher = more abundant; growth selection in yeast, the domain comes from the species named
Conditions: Homo sapiens

Variant	abundance fitness
GRPPQPKSVEDLHDRINLKEHMPTFLFNGYEDLDTFKLLEEEDLDELNIRDPEHRAVLLTAVELLQEYDSN [L13H]	-0.801 ± 0.096
GRPPQPKSVEDLYDRINLKEHMPTFLFNGYEDLDTFKLLEEEDLDELNIRDPEHRAVLLTAVELLQEYDSN [L13Y]	-0.905 ± 0.096
GRPPQPKSVEDLTDRINLKEHMPTFLFNGYEDLDTFKLLEEEDLDELNIRDPEHRAVLLTAVELLQEYDSN [L13T]	-0.861 ± 0.077
GRPPQPKSVEDLDDRINLKEHMPTFLFNGYEDLDTFKLLEEEDLDELNIRDPEHRAVLLTAVELLQEYDSN [L13D]	-0.762 ± 0.1
GRPPQPKSVEDLADRINLKEHMPTFLFNGYEDLDTFKLLEEEDLDELNIRDPEHRAVLLTAVELLQEYDSN [L13A]	-0.788 ± 0.075
GRPPQPKSVEDQLDRINLKEHMPTFLFNGYEDLDTFKLLEEEDLDELNIRDPEHRAVLLTAVELLQEYDSN [L12Q]	-0.679 ± 0.077
GRPPQPKSVEDYLDRINLKEHMPTFLFNGYEDLDTFKLLEEEDLDELNIRDPEHRAVLLTAVELLQEYDSN [L12Y]	-0.672 ± 0.087
GRPPQPKSVEDHLDRINLKEHMPTFLFNGYEDLDTFKLLEEEDLDELNIRDPEHRAVLLTAVELLQEYDSN [L12H]	-0.924 ± 0.096
GRPPQPKSVEDTLDRINLKEHMPTFLFNGYEDLDTFKLLEEEDLDELNIRDPEHRAVLLTAVELLQEYDSN [L12T]	-0.829 ± 0.071
GRPPQPKSVEDNLDRINLKEHMPTFLFNGYEDLDTFKLLEEEDLDELNIRDPEHRAVLLTAVELLQEYDSN [L12N]	-0.794 ± 0.088
GRPPQPKSVEDELDRINLKEHMPTFLFNGYEDLDTFKLLEEEDLDELNIRDPEHRAVLLTAVELLQEYDSN [L12E]	-0.768 ± 0.084
GRPPQPKSVEDCLDRINLKEHMPTFLFNGYEDLDTFKLLEEEDLDELNIRDPEHRAVLLTAVELLQEYDSN [L12C]	-0.654 ± 0.077
GRPPQPKSVEDPLDRINLKEHMPTFLFNGYEDLDTFKLLEEEDLDELNIRDPEHRAVLLTAVELLQEYDSN [L12P]	-0.916 ± 0.093
GRPPQPKSVEDKLDRINLKEHMPTFLFNGYEDLDTFKLLEEEDLDELNIRDPEHRAVLLTAVELLQEYDSN [L12K]	-0.99 ± 0.12
GRPPQPKSVEDILDRINLKEHMPTFLFNGYEDLDTFKLLEEEDLDELNIRDPEHRAVLLTAVELLQEYDSN [L12I]	-0.328 ± 0.067
GRPPQPKSVEDSLDRINLKEHMPTFLFNGYEDLDTFKLLEEEDLDELNIRDPEHRAVLLTAVELLQEYDSN [L12S]	-0.75 ± 0.057
GRPPQPKSVEDVLDRINLKEHMPTFLFNGYEDLDTFKLLEEEDLDELNIRDPEHRAVLLTAVELLQEYDSN [L12V]	-0.464 ± 0.045
GRPPQPKSVEDALDRINLKEHMPTFLFNGYEDLDTFKLLEEEDLDELNIRDPEHRAVLLTAVELLQEYDSN [L12A]	-0.846 ± 0.065
GRPPQPKSVEDDLDRINLKEHMPTFLFNGYEDLDTFKLLEEEDLDELNIRDPEHRAVLLTAVELLQEYDSN [L12D]	-0.784 ± 0.089

Variant	abundance fitness
GRPPQPKSVECLLDRINLKEHMPTFLFNGYEDLDTFKLLEEEDLDELNIRDPEHRAVLLTAVELLQEYDSN [D11C]	-0.795 ± 0.079
GRPPQPKSVERLLDRINLKEHMPTFLFNGYEDLDTFKLLEEEDLDELNIRDPEHRAVLLTAVELLQEYDSN [D11R]	-0.926 ± 0.07
GRPPQPKSVEVLLDRINLKEHMPTFLFNGYEDLDTFKLLEEEDLDELNIRDPEHRAVLLTAVELLQEYDSN [D11V]	-0.852 ± 0.068
GRPPQPKSVEPLLDRINLKEHMPTFLFNGYEDLDTFKLLEEEDLDELNIRDPEHRAVLLTAVELLQEYDSN [D11P]	-0.92 ± 0.071
GRPPQPKSVEWLLDRINLKEHMPTFLFNGYEDLDTFKLLEEEDLDELNIRDPEHRAVLLTAVELLQEYDSN [D11W]	-0.793 ± 0.093
GRPPQPKSVEQLLDRINLKEHMPTFLFNGYEDLDTFKLLEEEDLDELNIRDPEHRAVLLTAVELLQEYDSN [D11Q]	-0.319 ± 0.052
GRPPQPKSVEGLLDRINLKEHMPTFLFNGYEDLDTFKLLEEEDLDELNIRDPEHRAVLLTAVELLQEYDSN [D11G]	-0.649 ± 0.08
GRPPQPKSVETLLDRINLKEHMPTFLFNGYEDLDTFKLLEEEDLDELNIRDPEHRAVLLTAVELLQEYDSN [D11T]	-0.818 ± 0.064
GRPPQPKSVEMLLDRINLKEHMPTFLFNGYEDLDTFKLLEEEDLDELNIRDPEHRAVLLTAVELLQEYDSN [D11M]	-0.97 ± 0.088
GRPPQPKSVEILLDRINLKEHMPTFLFNGYEDLDTFKLLEEEDLDELNIRDPEHRAVLLTAVELLQEYDSN [D11I]	-1.08 ± 0.11
GRPPQPKSVEKLLDRINLKEHMPTFLFNGYEDLDTFKLLEEEDLDELNIRDPEHRAVLLTAVELLQEYDSN [D11K]	-0.766 ± 0.088
GRPPQPKSVEHLLDRINLKEHMPTFLFNGYEDLDTFKLLEEEDLDELNIRDPEHRAVLLTAVELLQEYDSN [D11H]	-0.78 ± 0.067
GRPPQPKSVESLLDRINLKEHMPTFLFNGYEDLDTFKLLEEEDLDELNIRDPEHRAVLLTAVELLQEYDSN [D11S]	-0.749 ± 0.052
GRPPQPKSVELLLDRINLKEHMPTFLFNGYEDLDTFKLLEEEDLDELNIRDPEHRAVLLTAVELLQEYDSN [D11L]	-0.9 ± 0.057
GRPPQPKSVEFLLDRINLKEHMPTFLFNGYEDLDTFKLLEEEDLDELNIRDPEHRAVLLTAVELLQEYDSN [D11F]	-0.925 ± 0.08
GRPPQPKSVEALLDRINLKEHMPTFLFNGYEDLDTFKLLEEEDLDELNIRDPEHRAVLLTAVELLQEYDSN [D11A]	-0.607 ± 0.061
GRPPQPKSVEYLLDRINLKEHMPTFLFNGYEDLDTFKLLEEEDLDELNIRDPEHRAVLLTAVELLQEYDSN [D11Y]	-0.717 ± 0.067
GRPPQPKSVEELLDRINLKEHMPTFLFNGYEDLDTFKLLEEEDLDELNIRDPEHRAVLLTAVELLQEYDSN [D11E]	0.148 ± 0.049
GRPPQPKSVENLLDRINLKEHMPTFLFNGYEDLDTFKLLEEEDLDELNIRDPEHRAVLLTAVELLQEYDSN [D11N]	-0.605 ± 0.067

— the Human Domainome abundance scans (Beltran et al. 2025)
